T1: MotB-His (Enterobacteria phage T4, UniProt Q01437 1-162)
T1 sequence: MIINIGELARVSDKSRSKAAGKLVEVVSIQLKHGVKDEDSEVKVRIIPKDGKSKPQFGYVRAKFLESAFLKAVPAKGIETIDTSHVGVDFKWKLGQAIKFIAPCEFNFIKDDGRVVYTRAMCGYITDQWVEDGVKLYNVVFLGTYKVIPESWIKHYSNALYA

B1: dsP8 (37 bp) (dsDNA)
DNA 1: CAGAGACTATAATTAATAAATACAAAAACTATAAATG
DNA 2: CATTTATAGTTTTTGTATTTATTAATTATAGTCTCTG

Experiments:
MotB-His [1] = target: T1, MotB-His; test: EMSA; apparent Kd (50% shift); 4 mM Mg acetate; Oligo EMSA/footprint: 40 mM Tris acetate pH 7.9, 20 mM Tris-HCl pH 8.0, 2 mM K phosphate, 60 mM NaCl, 150 mM K glutamate, 4 mM Mg acetate, 0.52 mM EDTA, 0.14 mM DTT, 0.1 mg/mL BSA, 0.004% Triton X-100, 30% glycerol, 1 nM DNA (5 nM in footprint), 37 C 10 min; T4/lambda EMSA: 20 mM Tris-HCl pH 8, 2 mM K phosphate, 60 mM NaCl, 0.42 mM EDTA, 0.04 mM DTT, 0.004% Triton …; conditions: protein: recombinant; tags: C-terminal His6; label: 5'-32P top strand
MotB-His [2] = target: T1, MotB-His; test: EMSA; 4 mM Mg acetate; Oligo EMSA/footprint: 40 mM Tris acetate pH 7.9, 20 mM Tris-HCl pH 8.0, 2 mM K phosphate, 60 mM NaCl, 150 mM K glutamate, 4 mM Mg acetate, 0.52 mM EDTA, 0.14 mM DTT, 0.1 mg/mL BSA, 0.004% Triton X-100, 30% glycerol, 1 nM DNA (5 nM in footprint), 37 C 10 min; T4/lambda EMSA: 20 mM Tris-HCl pH 8, 2 mM K phosphate, 60 mM NaCl, 0.42 mM EDTA, 0.04 mM DTT, 0.004% Triton X-100, 30% glycerol, 37 C 10 …; conditions: protein: recombinant; tags: C-terminal His6; label: 5'-32P

Binder	Kd (MotB-His [1])	binding signal (MotB-His [2])
B1	100 ± 30 nM	
CAGAGACTATAATTAATAAATACAAAAACTATAAATG (ssDNA) [ssP8 (37 nt)]		~6 fold lower affinity than dsP8
